No end group written: not given here. TAMRA = rhodamine dye label at the N-terminus (mixture of 5- and 6-isomers)
What was measured:
Type in all cases: physicochemical
[1] = Retention of arrayed peptides on a polypropylene sheet after successive washes; details: for Corrected signal: slide background subtracted
Method: Further experiments were undertaken to investigate the retention of peptides P1-1 to P1-5 and P2-1 to P2-2, shown in Table 3, on a polypropylene surface.
The polypropylene sheet was wiped with 50% (v/v) aqueous acetonitrile prior to use.
8×replicate 20 nl volumes of 1 μM peptides P1-1 to P1-5 and P2-1 to P2-2 and TAMRA in dimethyl sulphoxide (DMSO) were dispensed at 1 mm spacing to a 3″×1″×1 mm polypropylene sheet using the Piezorray system (PerkinElmer LAS). 500 drops were pre-dispensed using the ‘side shoot’ option and the tuning was set to 72V for 30 μs.
The slide was imaged at 10 μm resolution on a Typhoon Trio Plus variable mode imager (Amersham Biosciences) with the green (532 nm) laser and the 580 BP 30 filter at a PMT voltage of 600 V and at normal sensitivity. The scan height was set at the platen and the samples were pressed during scanning. The fluorescence image was analysed using ImageQuant TL v2003.03 (Amersham Biosciences).
The lower half of the slide (containing the test array) was then washed in 100 ml of 1 M NaCl containing 10 mM tris-HCl (pH 8.0) for one minute and were re-scanned as described above.
The same half of the slide was then washed for a second time in 100 ml of 1 M NaCl containing 10 mM tris-HCl (pH 8.0) for 30 minutes and re-scanned as described above.
The same half of the slide was then washed for a third time in 100 ml of water for 30 minutes and re-scanned as described above.

[2] = pH resistance of peptide deposited onto polypropylene; details: maximal retention at low and high pH, minimal around pH 6.5
Method: The pH resistance of peptide 2DOS-2 (see above) deposited onto a polypropylene hydrophobic surface was investigated:
Twelve 50 μl aliquots of peptide 2DOS-2 in 10 mM tris-HCl (pH 8.0) in 50% (v/v) aqueous acetonitrile were dried down in the wells of a Costar microtitre plate.
(§1) The peptide samples were allowed to evaporate to dryness in the dark.
The dried peptide samples in the first eleven wells were incubated with 200 μl of 100 mM phosphate buffer for 30 minutes at room temperature according to the scheme shown in Table 7:
All supernatants were pipetted off and the residual surface-bound peptides in all twelve wells were finally resuspended in 50 μl of 10,mM tris-HCl (pH 8.0) in 50% (v/v) aqueous acetonitrile and the microtitre plate was imaged at 200 μm resolution on a Typhoon Trio Plus variable mode imager (Amersham Biosciences) with the green (532 nm) laser and the 580 BP 30 filter at the PMT voltages indicated below and at normal sensitivity. The scan height was set at +3 mm and the sample was pressed during scanning.
(§2) The fluorescence images were analysed using ImageQuant TL v2003.03 (Amersham Biosciences).
Quantification data for peptide 2DOS-2 retention (using data from the 300V scan) are given in Table 8 and graphically in FIG. 16: […]

[3] = Time-dependent persistence of peptide on polypropylene in aqueous buffer; details: 1 M NaCl/10 mM tris-HCl (pH 8.0)
Method: The time-dependent persistence of peptide 2DOS-2 (see above) deposited onto a polypropylene hydrophobic surface in the presence of aqueous buffer was investigated as shown below:
Twelve 100 μl aliquots of 5 μM peptide 2DOS-2 in 5 mM tris-HCl (pH 8.0) in 75% (v/v) aqueous acetonitrile were dispensed to the wells of the top row of a Costar microtitre plate.
as §1
The dried peptide samples in wells 1-10 were incubated with 250 μl of 1 M NaCl in 10 mM tris-HCl (pH 8.0) for the time indicated below at room temperature. All supernatants were pipetted up and down 8 times after incubation and the supernatants were then removed and placed in the wells of the bottom row of the microtitre plate. […]
as §2
Fluorescence data for the time-dependent persistence of peptide 2DOS-2 deposited onto a polypropylene hydrophobic surface in the presence of aqueous buffer are shown in FIG. 17: […]

[4] = Control array (not washed), scan after first wash
[5] = Control array (not washed), scan after second wash
[6] = Control array (not washed), scan after third wash
[7] = Test array, after first wash (1 M NaCl, 10 mM tris-HCl pH 8.0, one minute)
[8] = Test array, after second wash (1 M NaCl, 10 mM tris-HCl pH 8.0, 30 minutes)
[9] = Test array, after third wash (water, 30 minutes)

Substance | Average fluorescence [1, 4] | Corrected signal [1, 4] | Average fluorescence [1, 5] | Corrected signal [1, 5] | Average fluorescence [1, 6] | Corrected signal [1, 6] | Average fluorescence [1, 7] | Corrected signal ([1]; Test array, after first wash) | Average fluorescence [1, 8] | Corrected signal ([1]; Test array, after second wash) | Average fluorescence [1, 9] | Corrected signal ([1]; Test array, after third wash) | retention on polypropylene sheet (in words) ([1]; compared among P1-1 to P1-5, chain length of 19 amino acids) | retention on a polypropylene surface versus pH (in words) [2] | retention on a hydrophobic polypropylene surface over time (in words) [3]
TAMRA-F-G-F-G-F-S-F-A-F-D-F-G-F ({TAMRA}-FGFGFSFAFDFGF) [Peptide P1-2] | 200,280,129 | 53,588,457 | 196,080,891 | 58,801,042 | 185,727,868 | 51,820,628 | 170,078,218 | 15,580,260 | 135,695,639 | 3,248,336 | 126,193,156 | 1,895,931 | – | – | –
TAMRA-F-G-F-G-F-G-F-G-F-G-F-S-F-A-F-D-F-G-F ({TAMRA}-FGFGFGFGFGFSFAFDFGF) [Peptide P1-5] | 199,347,483 | 52,655,810 | 190,847,825 | 53,567,975 | 183,492,293 | 49,585,053 | 201,991,732 | 47,493,774 | 167,865,473 | 35,418,169 | 147,812,043 | 23,514,817 | highest retention | – | –
TAMRA-F-G-F-G-F-G-F-S-F-A-F-D-F-G-F ({TAMRA}-FGFGFGFSFAFDFGF) [Peptide P1-3] | 192,743,469 | 46,051,796 | 187,310,655 | 50,030,806 | 184,219,147 | 50,311,907 | 171,197,973 | 16,700,014 | 148,725,456 | 16,278,152 | 125,717,642 | 1,420,417 | – | – | –
TAMRA-F-G-F-G-F-G-F-G-F-S-F-A-F-D-F-G-F ({TAMRA}-FGFGFGFGFSFAFDFGF) [Peptide P1-4] | 187,287,630 | 40,595,958 | 179,942,418 | 42,662,569 | 176,102,487 | 42,195,247 | 189,823,310 | 35,325,352 | 159,100,527 | 26,653,223 | 135,681,173 | 11,383,947 | – | – | –
TAMRA-F-G-F-S-F-A-F-D-F-G-F ({TAMRA}-FGFSFAFDFGF) [Peptide P1-1] | 244,263,013 | 97,571,341 | 225,863,933 | 88,584,083 | 218,342,010 | 84,434,769 | 157,624,537 | 3,126,578 | 127,216,792 | −5,230,512 | 124,941,941 | 644,716 | – | – | –
N-TAMRA-Phe-Asp-Phe-Ala-Phe-Ser-Phe-Lys-Phe-C ({TAMRA}-FDFAFSFKF; not fully specified (C-terminus)) [Peptide 2DOS-2] | – | – | – | – | – | – | – | – | – | – | – | – | – | stable over a broad range of pH values | stable for extended periods of time
